Measurements as given in patent US20210087270A1.

Columns and labels:
[1] = biological target: human KIR3DL2 (CD158k), wild type, at the cell surface (human) (UniProt P43630); test: cell-based or functional assay
[2] = biological target: recombinant human KIR3DL2 protein (human) (UniProt P43630); test: SPR (Biacore), bivalent binding, N = 1
[3] = biological target: recombinant human KIR3DL2 protein (human) (UniProt P43630); test: SPR (Biacore), bivalent binding, N = 2
[4] = biological target: recombinant human KIR3DL2 protein (human) (UniProt P43630); test: SPR (Biacore), bivalent binding, N = 3
[5] = biological target: recombinant human KIR3DL2 protein (human) (UniProt P43630); test: SPR (Biacore), bivalent binding, mean of three
[6] = biological target: recombinant human KIR3DL2 protein (human) (UniProt P43630); test: SPR (Biacore), mean off-rate for bivalent binding converted to per hour
[7] = biological target: recombinant human KIR3DL2 protein (human) (UniProt P43630); test: SPR (Biacore), average bivalent binding affinity to recombinant KIR3DL2
[8] = biological target: human KIR3DL2 (CD158k), wild type, at the cell surface (human) (UniProt P43630); test: flow cytometry, concentration-response binding of PE-labelled IPH4102 on COU-L Sezary cell line
[9] = biological target: human KIR3DL2 (CD158k), wild type, at the cell surface (human) (UniProt P43630); test: flow cytometry, concentration-response binding of PE-labelled IPH4102 on HuT78 Sezary cell line
[10] = biological target: human KIR3DL2 (CD158k), wild type, at the cell surface (human) (UniProt P43630); test: flow cytometry, concentration-response binding of PE-labelled IPH4102 on primary Sezary tumor cells
[11] = biological target: human KIR3DL2 (CD158k), wild type, at the cell surface (human) (UniProt P43630); test: PK/PD model parameter 'Binding affinity', set from the filing's flow cytometry titration of IPH4102 on KIR3DL2-positive cells (EC50 about 0.07 ug/mL); not a separate kinetic measurement

Chain of human KIR3DL2 (CD158k), wild type, at the cell surface (human) (P43630 22-455 E158D): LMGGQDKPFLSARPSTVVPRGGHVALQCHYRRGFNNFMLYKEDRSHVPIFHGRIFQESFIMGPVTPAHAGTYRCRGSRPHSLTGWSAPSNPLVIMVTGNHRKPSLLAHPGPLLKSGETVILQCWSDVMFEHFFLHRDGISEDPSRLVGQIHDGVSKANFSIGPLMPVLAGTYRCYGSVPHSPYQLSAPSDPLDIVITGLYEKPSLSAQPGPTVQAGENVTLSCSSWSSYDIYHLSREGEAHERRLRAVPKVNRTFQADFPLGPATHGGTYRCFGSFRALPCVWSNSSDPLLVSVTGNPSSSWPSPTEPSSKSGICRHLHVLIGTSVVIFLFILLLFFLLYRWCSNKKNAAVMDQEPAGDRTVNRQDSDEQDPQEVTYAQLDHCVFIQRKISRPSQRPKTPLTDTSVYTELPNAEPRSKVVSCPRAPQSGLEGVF

EC50 in 51Cr-release assay HuT 78 tumor lysis by PBMC from healthy volunteers [1]: 0.045 µg/mL
median EC10 in the 51Cr release assay (HuT78 tumor cell lysis by healthy donors' PBMC, NK cell lytic capacity) [1]: 0.002 µg/mL
Kd [2]: 162 pM
koff [2]: 0.000156 s⁻¹
kon [2]: 968000 M⁻¹ s⁻¹
Kd [3]: 131 pM
koff [3]: 0.000125 s⁻¹
kon [3]: 953000 M⁻¹ s⁻¹
Kd [4]: 144 pM
koff [4]: 0.000139 s⁻¹
kon [4]: 965000 M⁻¹ s⁻¹
Kd [5]: 146 pM
koff [5]: 0.00014 s⁻¹
kon [5]: 962000 M⁻¹ s⁻¹
koff [6]: 0.00014 s⁻¹
Kd [7]: 0.0219 µg/mL
EC50 [8]: 0.087 µg/mL
EC50 [9]: 0.06 µg/mL
EC50 [10]: 0.07 µg/mL
Kd [11]: 0.07 µg/mL
B1: IPH4102 (humanized 2B12 mAb, full-length human IgG1 anti-KIR3DL2 antibody) (antibody, from a related filing, V domains shown)
VH: QIQLVQSGSELKKPGASVKVSCKASGYTFTTAGMQWVRQAPGQGLEWIGWINSHSGVPKYAEDFKGRFVFSLDTSVSTAYLQISSLKAEDTAVYFCARGGDEGVMDYWGQGTTVTVSS
VL: DIQMTQSPSFLSASVGDRVTITCKASQDVSTAVAWYQQKPGQPPKLLIYWTSTRHTGVPDRFSGSGSGTDYTLTISSLQAEDVAVYYCQQHYSTPWTFGGGTKVEIK
